Experimental data from patent publication US11155596B2, “Polypeptide” (AFFIBODY AB, priority 2016, dated 2021).

Experiments:
[1] = system: PD-L1 expressing MDA-MB-231 cells; test: Cell binding analysis by FACS, MDA-MB-231 cells; type: cell-based; conditions: 0.625 μg/ml complex or antibody (anti-PD-L1 antibody 1 μg/ml), negative control 69
Description: Cells incubated with buffer alone were used as negative controls. The cells were incubated for 1 h at 8° C. in the dark, washed twice with 100 μl staining buffer, and resuspended in 100 μl of staining buffer containing 2.5 μg/ml of a goat-anti-human IgG-Alexa488 (Molecular Probes, cat. no. A11013) or, for cells stained with the positive control antibody, goat anti-mouse IgG-Alexa647 antibody (Life Technologies, cat. No. A21236). The cells were incubated for 1 h at 8° C. in the dark, washed twice with 100 μl staining buffer and resuspended in 300 μl of staining buffer. Data from 10,000 cells were obtained using a FACS Calibur ([…]) and the data was analyzed using Flowing software 2.5.0 (Turku University). Mean fluorescence intensity (MFI) was used as a read out of binding capacity.

[2] = Circular dichroism (CD) spectroscopy, variable temperature measurement; type: physicochemical; conditions: 1 mM EDTA, pH 7.2; for Tm (° C.): 0.5 mg/ml in 20 mM HEPES, VTM 20 to 90° C. at 221 nm; for refolding, CD spectra before and after heating to 90° C.: 20 mM HEPES
Description: Circular dichroism (CD) spectroscopy analysis: Two purified Z variants with a C-terminal cysteine, Z15168-Cys (SEQ ID NO:809) and Z15169-Cys (SEQ ID NO:810), were diluted to 0.5 mg/ml in 20 mM HEPES, 1 mM EDTA, pH 7.2. For each diluted Z variant, a CD spectrum at 250-195 nm was obtained at 20° C. In addition, a variable temperature measurement (VTM) was performed to determine the melting temperature (Tm). In the VTM, the absorbance was measured at 221 nm while the temperature was raised from 20 to 90° C., with a temperature slope of 5° C./min. A new CD spectrum was obtained at 20° C. after the heating procedure in order to study the refolding ability of the Z variants. The CD measurements were performed on a Jasco J-810 spectropolarimeter (Jasco Scandinavia AB) using a cell with an optical path length of 1 mm.
Circular dichroism (CD) spectroscopy analysis: A subset of the purified Hiss-tagged Z variants were analyzed by CD spectroscopy as described in Example 3, but with the exceptions that the analysis buffer was PBS and that the temperature was raised to 80° C. in the VTM.

[3] = system: MDA-MB-231 cells co-cultivated with PBMC; test: Co-culture of MDA-MB-231 and PBMC (mixed lymphocyte assay); type: cell-based; conditions: six days co-culture with PBMC; 200-0.064 nM
Description: Co-culture of MDA-MB-231 and PBMC: A mixed lymphocyte assay was used to analyze if the Ipi-based complexes could affect proliferation or the cytotoxic effect of T-cells and thereby increase the elimination of cancer cells. Herein, peripheral blood mononuclear cells (PBMC) and MDA-MB-231 cells were co-cultivated for six days and the number of T-cells and cancer cells were assessed. 20000 MDA-MB-231 cells, cultivated in DMEM containing 10% FBS, were pipetted per well of a flat-bottomed 96-well plate and were left to adhere to the bottom of the well by incubation at 37° C. in a humidified 5% CO2 atmosphere. Day 2 of the experiment, serial dilutions (200-0.064 nM) of the Ipi-based complexes were prepared in a separate plate using RPM11640 with L-glut (Lonza) supplemented with 10% FCS, and 1% Pen-Strep (Lonza, cat. no. DE17-603E). The DMEM medium was discarded from the MDA-MB-231 cells and 100 μl of the diluted complexes were added. PBMC were prepared form a buffy coat using Ficoll Paque PLUS (GE Healthcare, cat no. 17-1440-02). In brief, the buffy coat was diluted 2× in PBS. […] The cells were counted and adjusted to 1 million cells per ml in supplemented RPMI medium. […] At day 7 of the experiment, the number of MDA-MD-231 cells and CD3+ T-cells were counted by FACS. […]

Substance	MFI [1]	Tm (° C.) [2]	refolding, CD spectra before and after heating to 90° C. [2]	number of MDA-MB231 cells [3]
Lam: control antibody having the same CDR sequences and specificity as PD-1 targeting pembrolizumab; SEQ ID NO:815 and 816	62			
Z15168-Cys: Z13091 mutated to start with AE instead of VD, with C-terminal addition of VDC		50 °C	Reversible folding	
Z15169-Cys: Z13156 mutated to start with AE instead of VD, with C-terminal addition of VDC		58 °C	Reversible folding	
ipilimumab [reference compound]				did not induce a concentration dependent decrease of the cancer cells
